Experimental data taken from paper PMC3217939.
pKd: −log10 of the molar value.

Molecular target: Cotton leaf curl Kokhran virus-Dabawali V2, His-tagged (Cotton leaf curl Kokhran virus-Dabawali)
Test: SPR; BIAcore 2000, 25 C; His-tagged V2 immobilised on Ni-NTA chip (about 340-350 RU); GST-CP 100-800 nM flowed at 20 ul/min, 90 s association; 10 mM HEPES pH 7.4, 150 mM NaCl, 50 uM EDTA, 0.005% surfactant P-20; global fit, 1:1 Langmuir model

GST-CP fusion protein (coat protein of Cotton leaf curl Kokhran virus-Dabawali) (natural protein)
pKd: 5.59 | koff: 0.00267 s⁻¹ | kon: 1030 M⁻¹ s⁻¹
